The values that follow come from PMC5597257.

Experiment [1] has as its target NbHUB1-GFP (Nicotiana benthamiana). Briefly: FRET or BRET; FRET by acceptor photobleaching in epidermal cells of N. benthamiana leaves; EGFP/GFP fusion as donor, DsRed fusion as acceptor; FRET efficiency (EF) in percent; without ChiLCV. For orientation: BRET reads energy transfer from a luciferase to a nearby fluorophore.
The target of experiment [2] is NbUBC2-EGFP (Nicotiana benthamiana). Described as above.
The target in experiment [3] is Rep-DsRed (Chilli leaf curl virus). Briefly: FRET or BRET; FRET by acceptor photobleaching in epidermal cells of N. benthamiana leaves, in the presence of ChiLCV, Rep proteins organised as punctate bodies.
For experiment [4], the target named is NbUBC2-DsRed (Nicotiana benthamiana). Kind of experiment: FRET or BRET; FRET by acceptor photobleaching in epidermal cells of N. benthamiana leaves; EGFP/GFP fusion as donor, DsRed fusion as acceptor; FRET efficiency (EF) in percent; without ChiLCV.

With Rep_(1-180)-DsRed (domain or fragment), the FRET efficiency in experiment [1] turned out to be 44%; in experiment [2], 40.5%. For the substance Rep-EGFP (natural protein), in experiment [3], the FRET efficiency in the presence of ChiLCV was found to be 68.7%. This substance returned an FRET efficiency in experiment [4] of 43.7%. As to Rep-DsRed (natural protein), the FRET efficiency in experiment [1] is 58.7%. Consider “Rep_(181-361)-DsRed (domain or fragment)”, for which the FRET efficiency in experiment [1] came out at 58.5%.

Rep_(1-120)-DsRed (domain or fragment): the FRET efficiency in experiment [1] is 45%; in experiment [2], 38%.
